# Reference: US20150004190A1 (INSTITUT NATIONAL DE LA SANTE ET DE LA RECHERCHE MEDICALE …, published 2015)
# Assays:
# Assay in all cases: cell-based or functional assay
# [1] = molecular target: T1, HIV-1 R5 tropic QH0692.42 envelope (on pseudovirus) (HIV-1 QH0692.42)
# [2] = molecular target: T1, HIV-1 R5 tropic QH0692.42 envelope (on …); remark: listed apart in the source
# [3] = molecular target: HIV-1 JR-CSF envelope (on virions) (HIV-1 JR-CSF (clade B, R5 tropic), UniProt P20871 32-848)
binder,measurement,setting,value
"2F5 IgA2 (antibody, V domains shown) VH: RITLKESGPPLVKPTQTLTLTCSFSGFSLSDFGVGVGWIRQPPGKALEWLAIIYSDDDKRYSPSLNTRLTITKDTSKNQVVLVMTRVSPVDTATYFCAHRRGPTTLFGVPIARGPVNAMDVWGQGITVTI VL: ALQLTQSPSSLSASVGDRITITCRASQGVTSALAWYRQKPGSPPQLLIYDASSLESGVPSRFSGSGSGTEFTLTISTLRPEDFATYYCQQLHFYPHTFGGGTRVDVR","IC50%, neutralization of envelope pseudotyped HIV-1 in TZM-bl assay (luciferase)",[1],0.024 nM
same,"IC50 times lower than that of 2F5 IgG1, TZM-bl assay",[2],8.33 fold
same,"IC90 times lower than that of 2F5 IgG1, TZM-bl assay",[2],23.8 fold
same,"IC50 times lower than 2F5 IgG1, CEM-CCR5+ neutralization",[3],33 fold
same,"IC99 times lower than 2F5 IgG1, CEM-CCR5+ neutralization",[3],20 fold
"2F5 IgG1 (antibody, V domains shown) VH: RITLKESGPPLVKPTQTLTLTCSFSGFSLSDFGVGVGWIRQPPGKALEWLAIIYSDDDKRYSPSLNTRLTITKDTSKNQVVLVMTRVSPVDTATYFCAHRRGPTTLFGVPIARGPVNAMDVWGQGITVTI VL: ALQLTQSPSSLSASVGDRITITCRASQGVTSALAWYRQKPGSPPQLLIYDASSLESGVPSRFSGSGSGTEFTLTISTLRPEDFATYYCQQLHFYPHTFGGGTRVDVR","IC50%, neutralization of envelope pseudotyped HIV-1 in TZM-bl assay (luciferase)",[1],0.2 nM
